In IntAct's records for PubMed 25910212:

B1: Emerin (Homo sapiens), P50402 (parent)
chain: MDNYADLSDTELTTLLRRYNIPHGPVVGSTRRLYEKKIFEYETQRRRLSPPSSSAASSYSFSDLNSTRGDADMYDLPKKEDALLYQSKGYNDDYYEESYFTTRTYGEPESAGPSRAVRQSVTSFPDADAFHHQVHDDDLLSSSEEECKDRERPMYGRDSAYQSITHYRPVSASRSSLDLSYYPTSSSTSFMSSSSSSSSWLTRRAIRPENRAPGAGLGQDRQVPLWGQLLLFLVFVIVLFFIYHFMQAEEGNPF
partner: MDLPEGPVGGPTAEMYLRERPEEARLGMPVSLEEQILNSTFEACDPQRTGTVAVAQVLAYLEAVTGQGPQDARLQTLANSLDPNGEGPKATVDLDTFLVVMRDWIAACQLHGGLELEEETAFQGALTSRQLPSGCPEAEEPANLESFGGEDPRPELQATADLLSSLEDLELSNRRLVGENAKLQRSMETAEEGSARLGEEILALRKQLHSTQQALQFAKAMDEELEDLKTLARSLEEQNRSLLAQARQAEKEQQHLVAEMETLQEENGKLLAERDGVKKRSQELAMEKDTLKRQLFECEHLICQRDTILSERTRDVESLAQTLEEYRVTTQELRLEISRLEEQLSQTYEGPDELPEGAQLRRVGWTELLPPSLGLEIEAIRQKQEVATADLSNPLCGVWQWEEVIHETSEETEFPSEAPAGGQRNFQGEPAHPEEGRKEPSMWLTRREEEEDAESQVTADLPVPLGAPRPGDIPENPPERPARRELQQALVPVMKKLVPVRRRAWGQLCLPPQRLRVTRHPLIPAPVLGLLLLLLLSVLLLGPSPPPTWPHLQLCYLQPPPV
B2: Beta-crystallin A4 (Homo sapiens), P53673 (parent)
chain: MTLQCTKSAGPWKMVVWDEDGFQGRRHEFTAECPSVLELGFETVRSLKVLSGAWVGFEHAGFQGQQYILERGEYPSWDAWGGNTAYPAERLTSFRPAACANHRDSRLTIFEQENFLGKKGELSDDYPSLQAMGWEGNEVGSFHVHSGAWVCSQFPGYRGFQYVLECDHHSGDYKHFREWGSHAPTFQVQSIRRIQQ
partner: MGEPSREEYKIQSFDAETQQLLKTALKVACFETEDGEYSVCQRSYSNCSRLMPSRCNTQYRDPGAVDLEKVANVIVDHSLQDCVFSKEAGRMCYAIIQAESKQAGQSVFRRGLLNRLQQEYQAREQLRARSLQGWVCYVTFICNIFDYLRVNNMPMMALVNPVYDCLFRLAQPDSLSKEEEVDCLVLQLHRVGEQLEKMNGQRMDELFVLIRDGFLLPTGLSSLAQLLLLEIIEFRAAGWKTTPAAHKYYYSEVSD
B3: Methylmalonyl-CoA epimerase, mitochondrial (Homo sapiens), Q96PE7 (parent)
chain: MARVLKAAAANAVGLFSRLQAPIPTVRASSTSQPLDQVTGSVWNLGRLNHVAIAVPDLEKAAAFYKNILGAQVSEAVPLPEHGVSVVFVNLGNTKMELLHPLGRDSPIAGFLQKNKAGGMHHICIEVDNINAAVMDLKKKKIRSLSEEVKIGAHGKPVIFLHPKDCGGVLVELEQA
B4: Proton-coupled zinc antiporter SLC30A2 (Homo sapiens), Q9BRI3 (parent)
chain: MEAKEKQHLLDARPAIRSYTGSLWQEGAGWIPLPRPGLDLQAIELAAQSNHHCHAQKGPDSHCDPKKGKAQRQLYVASAICLLFMIGEVVGGYLAHSLAVMTDAAHLLTDFASMLISLFSLWMSSRPATKTMNFGWQRAEILGALVSVLSIWVVTGVLVYLAVERLISGDYEIDGGTMLITSGCAVAVNIIMGLTLHQSGHGHSHGTTNQQEENPSVRAAFIHVIGDFMQSMGVLVAAYILYFKPEYKYVDPICTFVFSILVLGTTLTILRDVILVLMEGTPKGVDFTAVRDLLLSVEGVEALHSLHIWALTVAQPVLSVHIAIAQNTDAQAVLKTASSRLQGKFHFHTVTIQIEDYSEDMKDCQACQGPSD
partner: B1 partner
B5: Phospholamban (Homo sapiens), P26678 (parent)
chain: MEKVQYLTRSAIRRASTIEMPQQARQKLQNLFINFCLILICLLLICIIVMLL
partner: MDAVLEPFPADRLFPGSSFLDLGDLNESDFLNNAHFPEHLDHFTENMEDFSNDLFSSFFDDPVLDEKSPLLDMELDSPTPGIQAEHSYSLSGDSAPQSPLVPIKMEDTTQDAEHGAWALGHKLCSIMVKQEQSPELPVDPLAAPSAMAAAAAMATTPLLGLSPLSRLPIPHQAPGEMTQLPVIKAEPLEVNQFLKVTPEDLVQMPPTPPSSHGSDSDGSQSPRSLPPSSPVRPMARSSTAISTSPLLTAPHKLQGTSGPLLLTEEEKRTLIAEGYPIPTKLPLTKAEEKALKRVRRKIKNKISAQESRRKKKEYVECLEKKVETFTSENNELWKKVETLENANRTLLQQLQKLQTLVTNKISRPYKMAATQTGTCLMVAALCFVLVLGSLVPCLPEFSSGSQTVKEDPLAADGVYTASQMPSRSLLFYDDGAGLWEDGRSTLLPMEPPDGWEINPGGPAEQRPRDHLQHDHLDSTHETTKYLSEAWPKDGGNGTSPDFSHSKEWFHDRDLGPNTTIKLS

Variants of: B1
Conditions: with kash5_human KASH5, Q8N6L0

| effect of a mutation on the interaction | Variant |
| --- | --- |
| with no effect | P183H |

Variants of: B2
Conditions: with MIF4GD

| effect of a mutation on the interaction | Variant |
| --- | --- |
| disrupting interaction strength | V36M |

Variants of: B3
Conditions: with AGTRAP

| effect of a mutation on the interaction | Variant |
| --- | --- |
| with no effect | A76V |
| with no effect | R143C |
| with no effect | R143H |

Variants of: B3
Conditions: with CMTM5, Q96DZ9-2
CMTM5, Q96DZ9-2, sequence (Q96DZ9 other isoform, or with tags, fused parts or gaps): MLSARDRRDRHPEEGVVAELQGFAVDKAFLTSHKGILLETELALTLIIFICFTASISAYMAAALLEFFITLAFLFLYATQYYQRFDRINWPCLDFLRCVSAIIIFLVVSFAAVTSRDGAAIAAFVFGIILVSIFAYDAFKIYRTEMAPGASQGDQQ

| effect of a mutation on the interaction | Variant |
| --- | --- |
| with no effect | A76V |
| with no effect | R143C |
| with no effect | R143H |

Variants of: B4
Conditions: with kash5_human KASH5, Q8N6L0

| effect of a mutation on the interaction | Variant |
| --- | --- |
| with no effect | H54R |

Variants of: B5
Conditions: with cr3l1_human CREB3L1, Q96BA8

| effect of a mutation on the interaction | Variant |
| --- | --- |
| with no effect | R9C |
